# What was measured:
# Assay in all cases: cell-based or functional assay
# [1] = biological target: Bacillus subtilis XynA wildtype xylanase (SEQ ID No. 1), no modifications (Bacillus subtilis) (UniProt P18429)
# [2] = biological target: Bacillus subtilis xylanase variant BS3 (wildtype with D11F/R122D mutations) (Bacillus subtilis) (UniProt P18429)
# [3] = biological target: Bacillus subtilis xylanase variant D11F/R122D/Q175E (modifications made to SEQ ID No. 1) (Bacillus subtilis) (UniProt P18429)
# [4] = biological target: Bacillus subtilis xylanase variant D11F/R122D/Q175Y/S179Y (modifications made to SEQ ID No. 1) (Bacillus subtilis) (UniProt P18429)
# [5] = biological target: Bacillus subtilis xylanase variant D11F/R122D/T110A (modifications made to SEQ ID No. 1) (Bacillus subtilis) (UniProt P18429)
# [6] = biological target: Bacillus subtilis xylanase variant D11F/R122D/T110A/Y113A (modifications made to SEQ ID No. 1) (Bacillus subtilis) (UniProt P18429)
# [7] = biological target: Bacillus subtilis xylanase variant D11F/R122D/Y113A (modifications made to SEQ ID No. 1) (Bacillus subtilis) (UniProt P18429)
# [8] = biological target: Bacillus subtilis xylanase variant G12F/Y113D/R122D/Q175L (modifications made to SEQ ID No. 1) (Bacillus subtilis) (UniProt P18429)
# [9] = biological target: Bacillus subtilis xylanase variant G13F/Y113D/R122D/Q175L (modifications made to SEQ ID No. 1) (Bacillus subtilis) (UniProt P18429)
# [10] = biological target: Bacillus subtilis xylanase variant G13Y/G34K/T110A/Y113D/R122D/Q175L (modifications made to SEQ ID No. 1) (Bacillus subtilis) (UniProt P18429)
# [11] = biological target: Bacillus subtilis xylanase variant G13Y/I15Y/Y113D/R122D/Q175L (modifications made to SEQ ID No. 1) (Bacillus subtilis) (UniProt P18429)
# [12] = biological target: Bacillus subtilis xylanase variant G13Y/I77L/K99Y/T104W/T110A/Y113D/R122F/K154R/N159D/Q175L (modifications made to SEQ ID No. 1) (Bacillus subtilis) (UniProt P18429)
# [13] = biological target: Bacillus subtilis xylanase variant G13Y/I77M/K99Y/T104W/T110A/Y113D/R122F/K154R/N159D/Q175L (modifications made to SEQ ID No. 1) (Bacillus subtilis) (UniProt P18429)
# [14] = biological target: Bacillus subtilis xylanase variant G13Y/I77S/K99Y/T104W/T110A/Y113D/R122F/K154R/N159D/Q175L (modifications made to SEQ ID No. 1) (Bacillus subtilis) (UniProt P18429)
# [15] = biological target: Bacillus subtilis xylanase variant G13Y/I77V/K99Y/T104W/T110A/Y113D/R122F/K154R/N159D/Q175L (modifications made to SEQ ID No. 1) (Bacillus subtilis) (UniProt P18429)
# [16] = biological target: Bacillus subtilis xylanase variant G13Y/I77Y/K99Y/T104W/T110A/Y113D/R122F/K154R/N159D/Q175L (modifications made to SEQ ID No. 1) (Bacillus subtilis) (UniProt P18429)
# [17] = biological target: Bacillus subtilis xylanase variant G13Y/K99Y/T104W/T110A/Y113D/I118V/R122F/K154R/N159D/Q175L (modifications made to SEQ ID No. 1) (Bacillus subtilis) (UniProt P18429)
# [18] = biological target: Bacillus subtilis xylanase variant G13Y/K99Y/T104W/T110A/Y113D/N114D/R122F/K154R/N159D/L175K (modifications made to SEQ ID No. 1) (Bacillus subtilis) (UniProt P18429)
# [19] = biological target: Bacillus subtilis xylanase variant G13Y/K99Y/T104W/T110A/Y113D/N114D/R122F/K154R/N159D/Q175L (modifications made to SEQ ID No. 1) (Bacillus subtilis) (UniProt P18429)
# [20] = biological target: Bacillus subtilis xylanase variant G13Y/K99Y/T104W/T110A/Y113D/N114F/R122F/K154R/N159D/Q175L (modifications made to SEQ ID No. 1) (Bacillus subtilis) (UniProt P18429)
# [21] = biological target: Bacillus subtilis xylanase variant G13Y/K99Y/T104W/T110A/Y113D/N114Y/R122F/K154R/N159D/L175K (modifications made to SEQ ID No. 1) (Bacillus subtilis) (UniProt P18429)
# [22] = biological target: Bacillus subtilis xylanase variant G13Y/K99Y/T104W/T110A/Y113D/N114Y/R122F/K154R/N159D/Q175L (modifications made to SEQ ID No. 1) (Bacillus subtilis) (UniProt P18429)
# [23] = biological target: Bacillus subtilis xylanase variant G13Y/K99Y/T104W/T110A/Y113D/R122F/K154R/N159D/Q175K (modifications made to SEQ ID No. 1) (Bacillus subtilis) (UniProt P18429)
# [24] = biological target: Bacillus subtilis xylanase variant G13Y/K99Y/T104W/T110A/Y113D/R122F/K154R/N159D/Q175L (modifications made to SEQ ID No. 1) (Bacillus subtilis) (UniProt P18429)
# [25] = biological target: Bacillus subtilis xylanase variant G13Y/K99Y/T104W/T110A/Y113D/R122F/K154R/N159D/Y166F/Q175L (modifications made to SEQ ID No. 1) (Bacillus subtilis) (UniProt P18429)
# [26] = biological target: Bacillus subtilis xylanase variant G13Y/K99Y/T104W/Y113D/R122D/Q175L (modifications made to SEQ ID No. 1) (Bacillus subtilis) (UniProt P18429)
# [27] = biological target: Bacillus subtilis xylanase variant G13Y/T110A/Y113D/R122D/K154R/N159D/Q175L (modifications made to SEQ ID No. 1) (Bacillus subtilis) (UniProt P18429)
# [28] = biological target: Bacillus subtilis xylanase variant G13Y/T110A/Y113D/R122D/Q175L (modifications made to SEQ ID No. 1) (Bacillus subtilis) (UniProt P18429)
# [29] = biological target: Bacillus subtilis xylanase variant G13Y/T110A/Y113D/R122D/S162D/Q175L (modifications made to SEQ ID No. 1) (Bacillus subtilis) (UniProt P18429)
# [30] = biological target: Bacillus subtilis xylanase variant G13Y/T110A/Y113D/R122D/S162E/Q175L (modifications made to SEQ ID No. 1) (Bacillus subtilis) (UniProt P18429)
# [31] = biological target: Bacillus subtilis xylanase variant G13Y/T110A/Y113D/R122D/W164F/Q175L (modifications made to SEQ ID No. 1) (Bacillus subtilis) (UniProt P18429)
# [32] = biological target: Bacillus subtilis xylanase variant G13Y/T110A/Y113D/R122F/Q175L (modifications made to SEQ ID No. 1) (Bacillus subtilis) (UniProt P18429)
# [33] = biological target: Bacillus subtilis xylanase variant G13Y/V81I/K99Y/T104W/T110A/Y113D/R122F/K154R/N159D/Q175L (modifications made to SEQ ID No. 1) (Bacillus subtilis) (UniProt P18429)
# [34] = biological target: Bacillus subtilis xylanase variant G13Y/Y113D/R122D/Q175L (modifications made to SEQ ID No. 1) (Bacillus subtilis) (UniProt P18429)
# [35] = biological target: Bacillus subtilis xylanase variant G13Y/Y113D/R122F/Q175L (modifications made to SEQ ID No. 1) (Bacillus subtilis) (UniProt P18429)
# crude xylanase inhibitor preparation from wheat (Triticum aestivum) flour, containing both TAXI and XIP, sequence (main, form in doubt): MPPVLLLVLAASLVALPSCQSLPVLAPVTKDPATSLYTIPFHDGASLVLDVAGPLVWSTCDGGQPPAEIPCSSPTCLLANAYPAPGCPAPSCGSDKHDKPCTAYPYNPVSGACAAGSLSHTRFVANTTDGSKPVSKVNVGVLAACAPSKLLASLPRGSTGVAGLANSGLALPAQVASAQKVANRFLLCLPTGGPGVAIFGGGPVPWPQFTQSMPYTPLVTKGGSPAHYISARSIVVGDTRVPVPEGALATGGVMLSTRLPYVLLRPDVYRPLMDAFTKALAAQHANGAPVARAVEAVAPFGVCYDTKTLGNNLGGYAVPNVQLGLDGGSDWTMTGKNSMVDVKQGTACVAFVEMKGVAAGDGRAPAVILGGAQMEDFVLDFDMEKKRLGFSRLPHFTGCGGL
substance,measurement,setting,value
"crude xylanase inhibitor preparation from wheat (Triticum aestivum) flour, containing both TAXI and XIP",% Activity @ 5.6 XIU/ml (residual xylanase activity),[1],29%
same,% Activity @ 5.6 XIU/ml (residual xylanase activity),[2],100%
same,% Activity @ 33.5 XIU/ml (residual xylanase activity),[2],100%
same,% Activity @ 50 XIU/ml (residual xylanase activity),[2],95%
same,% Activity @ 5.6 XIU/ml (residual xylanase activity),[3],100%
same,% Activity @ 5.6 XIU/ml (residual xylanase activity),[4],100%
same,% Activity @ 5.6 XIU/ml (residual xylanase activity),[5],98%
same,% Activity @ 33.5 XIU/ml (residual xylanase activity),[5],100%
same,% Activity @ 5.6 XIU/ml (residual xylanase activity),[6],99%
same,% Activity @ 5.6 XIU/ml (residual xylanase activity),[7],100%
same,% Activity @ 5.6 XIU/ml (residual xylanase activity),[8],100%
same,% Activity @ 5.6 XIU/ml (residual xylanase activity),[9],100%
same,% Activity @ 33.5 XIU/ml (residual xylanase activity),[9],90%
same,% Activity @ 50 XIU/ml (residual xylanase activity),[10],97%
same,% Activity @ 33.5 XIU/ml (residual xylanase activity),[11],76%
same,% Activity @ 50 XIU/ml (residual xylanase activity),[12],75%
same,% Activity @ 50 XIU/ml (residual xylanase activity),[13],46%
same,% Activity @ 50 XIU/ml (residual xylanase activity),[14],20%
same,% Activity @ 50 XIU/ml (residual xylanase activity),[15],45%
same,% Activity @ 50 XIU/ml (residual xylanase activity),[16],37%
same,% Activity @ 50 XIU/ml (residual xylanase activity),[17],79%
same,% Activity @ 50 XIU/ml (residual xylanase activity),[18],79%
same,% Activity @ 50 XIU/ml (residual xylanase activity),[19],79%
same,% Activity @ 50 XIU/ml (residual xylanase activity),[20],79%
same,% Activity @ 50 XIU/ml (residual xylanase activity),[21],84%
same,% Activity @ 50 XIU/ml (residual xylanase activity),[22],78%
same,% Activity @ 50 XIU/ml (residual xylanase activity),[23],72%
same,% Activity @ 50 XIU/ml (residual xylanase activity),[24],64%
same,% Activity @ 50 XIU/ml (residual xylanase activity),[25],68%
same,% Activity @ 33.5 XIU/ml (residual xylanase activity),[26],80%
same,% Activity @ 50 XIU/ml (residual xylanase activity),[27],32%
same,% Activity @ 33.5 XIU/ml (residual xylanase activity),[28],50%
same,% Activity @ 50 XIU/ml (residual xylanase activity),[29],40%
same,% Activity @ 50 XIU/ml (residual xylanase activity),[30],44%
same,% Activity @ 50 XIU/ml (residual xylanase activity),[31],29%
same,% Activity @ 50 XIU/ml (residual xylanase activity),[32],65%
same,% Activity @ 50 XIU/ml (residual xylanase activity),[33],46%
same,% Activity @ 33.5 XIU/ml (residual xylanase activity),[34],86%
same,% Activity @ 50 XIU/ml (residual xylanase activity),[35],90%

# — US20120021092A1
